{"source": "paper PMC13477270", "target": "miniTRIM37 RING–B-box-2–hcc (human | T. thermophilus) (UniProt O94972)", "experiment": "SEC-MALS", "data": [{"substance": "miniTRIM37 RING–B-box-2–hcc (from UniProt O94972 1-158; O94972 214-254)", "values": [{"measurement": "stoichiometry N", "value": 2}]}]}
